From US20170158753A1 (INTEGRATED BIOTHERAPEUTICS, published 2017)

T1: glycoprotein from Sudan ebolavirus (SUDV) (Sudan ebolavirus (SUDV), UniProt Q66814 33-650)
T1 sequence: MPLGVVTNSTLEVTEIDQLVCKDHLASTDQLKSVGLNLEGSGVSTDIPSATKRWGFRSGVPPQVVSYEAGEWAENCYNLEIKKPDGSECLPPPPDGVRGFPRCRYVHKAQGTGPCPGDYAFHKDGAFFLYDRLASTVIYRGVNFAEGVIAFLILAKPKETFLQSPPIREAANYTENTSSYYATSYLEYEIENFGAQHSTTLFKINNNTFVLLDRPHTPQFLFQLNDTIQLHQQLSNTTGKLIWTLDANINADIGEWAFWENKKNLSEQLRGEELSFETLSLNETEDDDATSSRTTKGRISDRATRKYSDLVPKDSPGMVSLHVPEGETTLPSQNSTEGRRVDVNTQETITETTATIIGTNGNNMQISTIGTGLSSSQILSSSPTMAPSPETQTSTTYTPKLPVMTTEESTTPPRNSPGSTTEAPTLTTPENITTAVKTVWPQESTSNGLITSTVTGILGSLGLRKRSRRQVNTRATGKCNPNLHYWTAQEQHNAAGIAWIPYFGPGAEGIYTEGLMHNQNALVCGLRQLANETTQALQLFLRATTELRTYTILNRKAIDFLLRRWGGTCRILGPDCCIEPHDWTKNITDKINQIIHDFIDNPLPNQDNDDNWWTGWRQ

T2: EBOV soluble GP (sGP) (Ebola virus (EBOV), UniProt P60170 33-324)
T2 sequence: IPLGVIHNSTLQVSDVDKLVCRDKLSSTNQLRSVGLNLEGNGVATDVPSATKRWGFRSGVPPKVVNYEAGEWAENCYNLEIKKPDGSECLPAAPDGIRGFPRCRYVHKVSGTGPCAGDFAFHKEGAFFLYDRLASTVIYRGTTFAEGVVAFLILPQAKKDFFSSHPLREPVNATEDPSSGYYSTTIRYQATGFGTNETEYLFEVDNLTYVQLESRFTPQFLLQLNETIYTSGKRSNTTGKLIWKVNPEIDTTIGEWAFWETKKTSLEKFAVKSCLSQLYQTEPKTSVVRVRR

T3: glycoprotein from Marburg virus (MARV; Musoke isolate) (Marburg virus (MARV; Musoke isolate), UniProt P35253 19-648)
T3 sequence: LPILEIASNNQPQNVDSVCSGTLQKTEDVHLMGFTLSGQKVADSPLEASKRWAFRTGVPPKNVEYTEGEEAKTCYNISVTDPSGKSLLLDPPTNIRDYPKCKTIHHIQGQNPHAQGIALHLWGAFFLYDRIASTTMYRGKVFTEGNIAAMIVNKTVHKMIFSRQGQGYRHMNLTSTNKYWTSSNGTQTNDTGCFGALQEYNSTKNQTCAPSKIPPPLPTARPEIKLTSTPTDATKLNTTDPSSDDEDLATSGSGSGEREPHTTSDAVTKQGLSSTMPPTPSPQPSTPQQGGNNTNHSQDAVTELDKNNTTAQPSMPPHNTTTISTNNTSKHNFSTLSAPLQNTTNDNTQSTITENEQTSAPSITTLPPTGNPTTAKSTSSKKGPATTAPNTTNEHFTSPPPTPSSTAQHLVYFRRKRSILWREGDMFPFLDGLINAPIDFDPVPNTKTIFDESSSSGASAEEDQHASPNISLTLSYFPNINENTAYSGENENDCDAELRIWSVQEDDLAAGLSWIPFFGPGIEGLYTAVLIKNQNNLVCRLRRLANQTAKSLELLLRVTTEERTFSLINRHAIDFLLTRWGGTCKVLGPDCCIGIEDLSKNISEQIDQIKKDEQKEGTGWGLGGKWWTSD

T4: glycoprotein from Reston ebolavirus (RESTV) (Reston ebolavirus (RESTV), UniProt Q66799 34-651)
T4 sequence: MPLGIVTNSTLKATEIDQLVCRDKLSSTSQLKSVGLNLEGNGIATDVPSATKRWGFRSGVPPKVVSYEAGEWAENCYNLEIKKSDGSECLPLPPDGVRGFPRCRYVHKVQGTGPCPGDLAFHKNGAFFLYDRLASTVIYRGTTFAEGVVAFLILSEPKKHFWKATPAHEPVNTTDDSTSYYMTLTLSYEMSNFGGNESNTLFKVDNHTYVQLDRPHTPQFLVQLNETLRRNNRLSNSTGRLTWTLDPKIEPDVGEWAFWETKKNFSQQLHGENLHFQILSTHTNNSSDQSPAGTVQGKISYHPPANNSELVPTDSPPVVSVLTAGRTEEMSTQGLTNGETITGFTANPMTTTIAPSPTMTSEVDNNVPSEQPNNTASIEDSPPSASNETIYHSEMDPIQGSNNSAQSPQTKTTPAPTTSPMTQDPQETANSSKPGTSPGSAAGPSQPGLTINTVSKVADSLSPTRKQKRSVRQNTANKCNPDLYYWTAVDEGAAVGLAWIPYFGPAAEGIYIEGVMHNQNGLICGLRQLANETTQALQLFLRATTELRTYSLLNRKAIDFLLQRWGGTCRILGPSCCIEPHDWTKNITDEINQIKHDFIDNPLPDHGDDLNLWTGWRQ


Assays:
[1] = target: T1, glycoprotein from Sudan ebolavirus …; assay: summary of reactivity by any method (ELISA, Western blot, BIACORE)
EBOV soluble GP (sGP) = target: T2, EBOV soluble GP (sGP); assay: ELISA on EBOV soluble GP (sGP), OD650 against nM mAb
[2] = target: T3, glycoprotein from Marburg virus (MARV; …); assay: summary of reactivity by any method (ELISA, Western blot, BIACORE)
[3] = target: T4, glycoprotein from Reston ebolavirus …; assay: as above

Row | Binder | binding result [1] | EC50 (EBOV soluble GP (sGP)) [nM] | binding result [2] | binding result (EBOV soluble GP (sGP)) | binding result [3]
1 | m17C6 (antibody, V domains shown) VH: EVQLQESGPGLVQPSQSLSITCTVSGFSLTSYGVHWVRQSPGKGLEWLGVIWSGGSTDYNAAFISRLSISKDNSKSQVFFKMNSLQADDTAIYYCARNWFDYDNYYSMDYWGQGTSVTVSS VL: DIQMTQTTSSLSASLGDRVTISCRASQDISNYLNWYQQKPDGTVKLLIYYTSRLHSGVPSRFSGSGSGTDFSLTISNQEPEDIATYYCQQYSNLPWTFGGGTKLEIKR | binds | 0.4 |  |  | 
2 | m21B2 (antibody, V domains shown) VH: EVQLQESGAELVRPGASVTLSCKTSGYTFTDYEMHWVKQTPVHGLEWIGAIDPETGGTAYNQKFKGKATLTADKSSSTAYMELSRLTSEDSAVYYCTGNYATDYWGQGTSVTVSS VL: DIVMSQSPSSLAVSAGEKVTMSCKSSQSLFNSRSRKNYLAWYQLKPGQSPKLLIYWASTRESGVPDRFTGSGSGTDFTLTISSVQAEDLAVYYCKQSNYLWTFGGGTKLEIKR |  |  | binds |  | 
3 | m16G8 (antibody, V domains shown) VH: EVQLQESGPGLVKPGASVKISCKASGYSFTGYYMNWVKQSPEKSLEWIGEINPSTGGTTYNQKFKAKATLTVDKSSSTAYMQLKSLTSEDSAVYYCVRYSHYYGSGSWYFDVWGTGTTVTVSS VL: DIQMTQSPASLSASVGETVTITCRASENIYSNLAWYQQKQGKSPQLLVNAATNLADGVPSRFSGSGSGTQFSLKINSLQPEDFGSYYCQHFYVTPYMFGSGTKLEIKR | binds |  | no binding | no binding (tested: about 67 nM (last point; axis to 100 nM)) | 
4 | m2E4 (antibody, V domains shown) VH: EVQLQESGPELVKPGASVKISCKASGYSFTGYYMNWVKQSPEKSLEWIGEINPSTGGTTYNQKFKAKATLTVDKSSSTAYMQLKSLTSEDSAVYYCVRYSHYYGSGSWYFDVWGTGTTVTVSS VL: DIQMTQSPASLSASVGETVTITCRASENIYSNLAWYQQKQGKSPQLLVNAATNLADGVPSRFSGSGSGTQFSLKINSLQPEDFGSYYCQHFYVTPYTFGSGTKLEIKR |  |  | no binding |  | 
5 | m2D8 (antibody, V domains shown) VH: EVQLQESGGELVRPGTSVKISCKASGYTFTNFWLGWIKERPGHGLEWIGDIYPGGHYTNYNENFKGKATLTADTSSNTAYMQVSSLTSEDSAVYFCFTQYYDMDYWGQGTSVTVSS VL: not shown | binds |  | binds |  | 
6 | m8C4 (antibody, V domains shown) VH: EVQLQESGPELKKPGETVKISCKASGYTFTTYGMSWVKQAPGKGLKWMGRINTYSGVPTYADEFKGRFAFSLENSASTAYLQINNLKNEDTATYFCARGDGGHWFANWGQGTLVTVSA VL: DIQMTQSPSSLSASLGGKVTITCKASQDINKNIAWYQHKPGKGPRLLIWYKSALQPGIPSRFSGSGSGRDYSFSISNLEPEDIATYSCLQYDNLPPTFGGGTKLEIKR |  | 10.3 | no binding |  | no binding
